{"source": "IntAct's records for PubMed 16263329", "parents": {"B1": {"name": "Anti-sigma-F factor antagonist RsfB (Mycobacterium tuberculosis (strain ATCC 25618 / P9WGE1 (parent)", "chain": "MSAPDSITVTVADHNGVAVLSIGGEIDLITAAALEEAIGEVVADNPTALVIDLSAVEFLGSVGLKILAATSEKIGQSVKFGVVARGSVTRRPIHLMGLDKTFRLFSTLHDALTGVRGGRIDR", "partner": "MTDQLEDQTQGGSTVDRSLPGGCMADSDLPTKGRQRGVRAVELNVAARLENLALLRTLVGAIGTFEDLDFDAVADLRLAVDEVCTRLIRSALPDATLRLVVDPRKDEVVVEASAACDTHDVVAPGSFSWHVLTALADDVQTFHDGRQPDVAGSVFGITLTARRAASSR"}}, "data": [{"variants_of": "B1", "details": "with rsbw_myctu rsbW", "values": [{"variant": "S61A", "effect of a mutation on the interaction": "decreasing interaction"}]}]}
